Results: patent US20220332804A1 (CSL INNOVATION, published 2022)

What was measured:
Experiment in all cases: SPR, KD relative to WT C2;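 further: biacore SPR at 37 °C, anti-C2 mAbs captured via immobilised goat anti-human IgG, C2 alanine or serine surface mutants as analytes, 1:1 model fitted, double-referenced sensograms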
[1] = molecular target: T1, human C2 S278A (human, UniProt P06681 21-752)
T1 sequence: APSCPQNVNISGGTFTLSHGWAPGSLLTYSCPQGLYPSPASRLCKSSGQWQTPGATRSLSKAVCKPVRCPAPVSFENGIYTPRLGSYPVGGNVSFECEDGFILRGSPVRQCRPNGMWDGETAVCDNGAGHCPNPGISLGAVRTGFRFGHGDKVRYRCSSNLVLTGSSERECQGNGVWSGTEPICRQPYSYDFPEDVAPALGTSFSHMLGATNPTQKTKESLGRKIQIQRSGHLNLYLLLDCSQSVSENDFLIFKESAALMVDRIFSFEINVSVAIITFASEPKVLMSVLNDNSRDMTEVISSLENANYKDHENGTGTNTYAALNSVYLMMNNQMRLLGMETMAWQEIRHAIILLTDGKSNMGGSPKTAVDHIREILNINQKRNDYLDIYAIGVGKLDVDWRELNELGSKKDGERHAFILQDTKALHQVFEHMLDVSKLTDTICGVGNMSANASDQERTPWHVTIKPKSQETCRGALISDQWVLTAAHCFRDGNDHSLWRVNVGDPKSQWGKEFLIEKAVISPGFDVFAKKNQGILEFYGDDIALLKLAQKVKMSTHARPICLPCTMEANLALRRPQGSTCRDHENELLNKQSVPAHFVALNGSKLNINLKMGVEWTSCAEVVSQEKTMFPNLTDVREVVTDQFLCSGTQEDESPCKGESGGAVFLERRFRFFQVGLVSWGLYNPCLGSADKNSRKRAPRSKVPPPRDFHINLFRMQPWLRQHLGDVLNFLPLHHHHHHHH

[2] = molecular target: T2, human C2 T491A (human, UniProt P06681 21-752)
T2 sequence: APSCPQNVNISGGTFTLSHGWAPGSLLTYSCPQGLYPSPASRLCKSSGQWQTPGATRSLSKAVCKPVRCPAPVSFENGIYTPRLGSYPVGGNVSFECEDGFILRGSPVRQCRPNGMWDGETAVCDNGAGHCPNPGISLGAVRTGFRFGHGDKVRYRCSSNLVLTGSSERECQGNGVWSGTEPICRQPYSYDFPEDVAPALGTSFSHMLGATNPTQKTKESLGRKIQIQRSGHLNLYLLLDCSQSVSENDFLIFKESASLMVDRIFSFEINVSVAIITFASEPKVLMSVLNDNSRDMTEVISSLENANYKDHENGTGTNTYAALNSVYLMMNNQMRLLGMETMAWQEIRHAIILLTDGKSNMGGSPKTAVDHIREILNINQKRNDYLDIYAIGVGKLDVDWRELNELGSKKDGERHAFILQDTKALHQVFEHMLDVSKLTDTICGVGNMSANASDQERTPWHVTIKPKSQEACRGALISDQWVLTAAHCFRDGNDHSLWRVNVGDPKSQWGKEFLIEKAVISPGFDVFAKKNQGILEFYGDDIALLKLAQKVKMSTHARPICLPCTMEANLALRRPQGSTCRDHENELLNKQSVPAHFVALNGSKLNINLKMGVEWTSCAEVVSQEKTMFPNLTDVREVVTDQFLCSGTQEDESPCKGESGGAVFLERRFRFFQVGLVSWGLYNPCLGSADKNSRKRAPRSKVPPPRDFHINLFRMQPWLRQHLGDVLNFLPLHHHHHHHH

[3] = molecular target: T3, human C2 T442A (human, UniProt P06681 21-752)
T3 sequence: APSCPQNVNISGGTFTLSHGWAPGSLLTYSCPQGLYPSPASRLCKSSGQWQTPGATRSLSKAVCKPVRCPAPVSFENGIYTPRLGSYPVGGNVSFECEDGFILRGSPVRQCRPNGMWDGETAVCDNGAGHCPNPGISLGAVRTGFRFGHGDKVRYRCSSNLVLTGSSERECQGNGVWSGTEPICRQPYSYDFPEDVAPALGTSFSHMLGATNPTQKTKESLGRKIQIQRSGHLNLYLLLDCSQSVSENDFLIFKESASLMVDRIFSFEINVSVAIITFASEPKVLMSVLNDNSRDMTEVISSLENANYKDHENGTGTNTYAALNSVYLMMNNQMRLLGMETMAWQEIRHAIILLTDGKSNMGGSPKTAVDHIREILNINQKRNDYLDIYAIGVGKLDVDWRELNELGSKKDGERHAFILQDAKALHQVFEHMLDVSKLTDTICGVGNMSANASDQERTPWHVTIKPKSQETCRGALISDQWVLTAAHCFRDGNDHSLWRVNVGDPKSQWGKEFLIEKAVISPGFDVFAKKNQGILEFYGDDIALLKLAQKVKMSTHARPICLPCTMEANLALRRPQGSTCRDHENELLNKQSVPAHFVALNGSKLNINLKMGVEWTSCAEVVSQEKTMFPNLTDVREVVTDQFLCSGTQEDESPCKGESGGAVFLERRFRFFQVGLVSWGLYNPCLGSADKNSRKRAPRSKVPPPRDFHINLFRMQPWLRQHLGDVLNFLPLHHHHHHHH

[4] = molecular target: T4, human C2 E275A (human, UniProt P06681 21-752)
T4 sequence: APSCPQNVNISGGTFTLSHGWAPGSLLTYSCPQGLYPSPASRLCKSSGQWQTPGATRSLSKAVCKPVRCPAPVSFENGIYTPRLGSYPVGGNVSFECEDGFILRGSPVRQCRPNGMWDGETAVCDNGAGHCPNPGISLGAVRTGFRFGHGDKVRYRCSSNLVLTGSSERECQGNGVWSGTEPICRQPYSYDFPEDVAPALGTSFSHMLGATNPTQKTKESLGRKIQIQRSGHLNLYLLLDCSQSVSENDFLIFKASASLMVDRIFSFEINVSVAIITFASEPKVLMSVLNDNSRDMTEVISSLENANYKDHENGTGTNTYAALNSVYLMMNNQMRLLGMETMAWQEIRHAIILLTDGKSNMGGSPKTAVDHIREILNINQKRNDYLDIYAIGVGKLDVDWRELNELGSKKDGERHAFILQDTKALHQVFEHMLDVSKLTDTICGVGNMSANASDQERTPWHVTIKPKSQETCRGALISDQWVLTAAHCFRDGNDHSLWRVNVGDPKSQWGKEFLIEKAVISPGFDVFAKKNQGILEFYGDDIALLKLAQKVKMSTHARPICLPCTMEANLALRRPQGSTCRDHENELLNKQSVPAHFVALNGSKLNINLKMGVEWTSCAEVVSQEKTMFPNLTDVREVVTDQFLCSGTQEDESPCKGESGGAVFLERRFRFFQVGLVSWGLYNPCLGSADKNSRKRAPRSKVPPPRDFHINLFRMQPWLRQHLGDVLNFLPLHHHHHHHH

B1: RF16-226 (antibody, human IgG4 S228P, lambda)
heavy: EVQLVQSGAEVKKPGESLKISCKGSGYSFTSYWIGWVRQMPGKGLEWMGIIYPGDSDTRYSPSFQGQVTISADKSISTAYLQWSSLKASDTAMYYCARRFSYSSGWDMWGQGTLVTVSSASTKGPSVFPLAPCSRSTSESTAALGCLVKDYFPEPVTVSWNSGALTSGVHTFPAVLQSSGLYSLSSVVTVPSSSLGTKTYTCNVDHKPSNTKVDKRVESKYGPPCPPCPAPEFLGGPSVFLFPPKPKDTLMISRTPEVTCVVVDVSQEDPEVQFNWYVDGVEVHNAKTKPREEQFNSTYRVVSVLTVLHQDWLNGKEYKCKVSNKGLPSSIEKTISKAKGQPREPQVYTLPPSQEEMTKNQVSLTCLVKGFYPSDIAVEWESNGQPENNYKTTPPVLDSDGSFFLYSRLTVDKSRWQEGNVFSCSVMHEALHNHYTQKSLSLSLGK
light: SYELTQPPSVSVSPGQTARITCSGDALTSKYVAWYQQKSGLAPLLVIYEDTRRPSGIPAKFSGSSSGSVATLTISGAHGDDEADYYCYSTDASGHQRVFGGGTKLTVLSQPKAAPSVTLFPPSSEELQANKATLVCLISDFYPGAVTVAWKADGSPVKAGVETTKPSKQSNNKYAASSYLSLTPEQWKSHRSYSCQVTHEGSTVEKTVAPTECS
notes: pH-dependent anti-C2 antibody from a phage display library; also called WT
B1 was tested, and the Fold diff [1] was 1 fold, the Fold diff [2] was 2 fold and the Fold diff [3] was 2 fold. The Fold diff [4] was 1 fold.
